How the values were obtained:
Assay in all cases: cell-based or functional assay
[1] = target: T1, CCL3 (human, UniProt P10147 24-92)
T1 sequence: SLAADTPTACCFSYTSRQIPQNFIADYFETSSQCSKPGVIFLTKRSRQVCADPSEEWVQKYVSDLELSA

[2] = target: T2, CCL5 (wild type) (human, UniProt P13501 24-91)
T2 sequence: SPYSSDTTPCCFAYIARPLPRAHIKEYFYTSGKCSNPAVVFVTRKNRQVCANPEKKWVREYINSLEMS

[3] = target: CCL7 (human, UniProt P80098 24-99)
[4] = target: T3, CCL8 (human, UniProt P80075 24-99)
T3 sequence: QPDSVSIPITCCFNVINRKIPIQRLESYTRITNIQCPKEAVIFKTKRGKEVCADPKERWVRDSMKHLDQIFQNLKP

[5] = target: CCL11 (human, UniProt P51671 24-97)
Chain of CCL11 (P51671 24-97): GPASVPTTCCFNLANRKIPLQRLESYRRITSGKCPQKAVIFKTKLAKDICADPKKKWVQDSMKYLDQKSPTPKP

[6] = target: T4, CCL15 (human, UniProt Q16663)
T4 sequence: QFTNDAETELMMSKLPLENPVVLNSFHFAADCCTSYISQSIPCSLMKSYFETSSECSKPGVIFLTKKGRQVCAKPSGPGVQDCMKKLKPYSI

[7] = target: T5, CCL16 (human, UniProt O15467 24-120)
T5 sequence: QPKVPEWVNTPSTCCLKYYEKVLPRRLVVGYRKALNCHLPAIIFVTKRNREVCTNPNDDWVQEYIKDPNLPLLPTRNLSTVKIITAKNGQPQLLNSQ

[8] = target: T6, CCL17 (human, UniProt Q92583 24-94)
T6 sequence: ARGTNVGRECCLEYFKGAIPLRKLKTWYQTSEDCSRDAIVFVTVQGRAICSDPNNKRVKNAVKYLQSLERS

[9] = target: T7, CCL22 (human, UniProt O00626 25-93)
T7 sequence: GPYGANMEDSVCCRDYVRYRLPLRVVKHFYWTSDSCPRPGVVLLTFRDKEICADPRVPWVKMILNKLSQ

[10] = target: T8, CCL23 (human, UniProt P55773)
T8 sequence: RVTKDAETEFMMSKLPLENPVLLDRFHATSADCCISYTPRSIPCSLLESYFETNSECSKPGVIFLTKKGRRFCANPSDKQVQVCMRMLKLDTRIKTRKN

[11] = target: T9, CCL24 (human, UniProt O00175 27-119)
T9 sequence: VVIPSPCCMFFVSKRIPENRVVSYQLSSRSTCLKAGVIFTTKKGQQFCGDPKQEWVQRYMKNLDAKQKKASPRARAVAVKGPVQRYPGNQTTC

[12] = target: T10, CCL26 (human, UniProt Q9Y258 24-94)
T10 sequence: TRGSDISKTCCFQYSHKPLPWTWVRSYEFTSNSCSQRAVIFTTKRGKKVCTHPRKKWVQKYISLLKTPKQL

[13] = target: T11, CCL3L1 (human, UniProt P16619 24-93)
T11 sequence: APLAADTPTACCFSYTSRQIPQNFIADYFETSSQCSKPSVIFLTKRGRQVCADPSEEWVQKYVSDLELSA

Chain of CCL7 (P80098 24-99): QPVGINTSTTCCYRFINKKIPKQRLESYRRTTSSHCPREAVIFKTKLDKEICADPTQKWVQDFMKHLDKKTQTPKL

B1: Evasin-4 (untagged recombinant) (natural protein)
chain: EVPQMTSSSAPDLEEEDDYTAYAPLTCYFTNSTLGLLAPPNCSVLCNSTTTWFNETSPNNASCLLTVDFLTQDAILQENQPYNCSVGHCDNGTCAGPPRHAQCW
modifications: appears to be highly glycosylated (six putative N-glycosylation sites)
IC50, inhibition of chemotaxis of 300.19CCR1 cells to CCL3 (EC80 1 nM) [1]: 2 nM | IC50, inhibition of chemotaxis of L1.2/CCR5 cells to CCL3 (EC80 40 nM) [1]: 4.4 nM | IC50, inhibition of chemotaxis of 300.19/CCR1 cells to CCL5 (EC80 1 nM) [2]: 2.2 nM | IC50, inhibition of chemotaxis of L1.2/CCR5 cells to CCL5 (EC80 1 nM) [2]: 4.8 nM | IC50, inhibition of chemotaxis of monocytes to CCL5 (EC80 10 nM) [2]: 1.5 nM | IC50, inhibition of chemotaxis of eosinophils to CCL7 (EC80 10 nM) [3]: 5 nM | IC50, inhibition of chemotaxis of L1.2/CCR3 cells to CCL8 (EC80 5 nM) [4]: 3.6 nM | IC50, inhibition of chemotaxis of eosinophils to CCL8 (EC80 10 nM) [4]: 3.1 nM | IC50, inhibition of chemotaxis of L1.2/CCR3 cells to CCL11 (EC80 1 nM) [5]: 14 nM | IC50, inhibition of chemotaxis of eosinophils to CCL11 (EC80 1 nM) [5]: 4.9 nM | IC50, inhibition of chemotaxis of L1.2/CCR3 cells to CCL15 (EC80 100 nM) [6]: 88 nM | IC50, inhibition of chemotaxis of 300.19/CCR1 cells to CCL16 (EC80 250 nM) [7]: 304 nM | IC50, inhibition of chemotaxis of L1.2/CCR4 cells to CCL17 (EC80 1 nM) [8]: 69 nM | IC50, inhibition of chemotaxis of L1.2/CCR4 cells to CCL22 (EC80 1 nM) [9]: 38 nM | IC50, inhibition of chemotaxis of 300.19/CCR1 cells to CCL23 (EC80 10 nM) [10]: 2.2 nM | IC50, inhibition of chemotaxis of L1.2/CCR3 cells to CCL24 (EC80 10 nM) [11]: 95 nM | IC50, inhibition of chemotaxis of L1.2/CCR3 cells to CCL26 (EC80 10 nM) [12]: 68 nM | IC50, inhibition of chemotaxis of eosinophils to CCL26 (EC80 50 nM) [12]: 101 nM | IC50, inhibition of chemotaxis of L1.2/CCR5 cells to CCL3L1 (EC80 1 nM) [13]: 3.5 nM
